Test results reported in patent US20250382363A1 (NUMAB THERAPEUTICS, published 2025).

Experiments:
[1] = biological target: pre-existing anti-drug antibodies (ADA) present in human sera; experiment: pre-existing ADA ELISA, scFv coated, human sera unspiked vs spiked
[2] = biological target: T1, human a-Mesothelin (Acro Biosystems; MSN_H5223) (human, UniProt Q13421 296-580, limits assumed); experiment: SPR, mesothelin immobilised, scFv analyte, 1:1 fit
T1 construct: Bought protein immobilised on the SPR chip; Printed as 'a-Mesothelin' but used as the antigen for the anti-MSLN scFvs; also called Human MSLN; MSLN
Protocol: The mutation variants were then injected at concentrations of 10 nM, 2 nM and 0.4 nM over the ligand-immobilized and reference spots. The wild type variants were used as a control, while an empty spot was used as reference.
After each cycle with analyte, the surface was regenerated with a 3M MgCl₂ solution, thereby allowing the next analyte cycle to have only free ligand available. Binding affinity KD was globally calculated by the Bruker SPR software based on the binding association (kₒₙ) and dissociation (Koff) rate, by fitting a 1:1 Langmuir model to the curves obtained by the cycles with the three different concentrations of the analyte.

T1 sequence (Q13421 other isoform, or with tags, fused parts or gaps limits assumed): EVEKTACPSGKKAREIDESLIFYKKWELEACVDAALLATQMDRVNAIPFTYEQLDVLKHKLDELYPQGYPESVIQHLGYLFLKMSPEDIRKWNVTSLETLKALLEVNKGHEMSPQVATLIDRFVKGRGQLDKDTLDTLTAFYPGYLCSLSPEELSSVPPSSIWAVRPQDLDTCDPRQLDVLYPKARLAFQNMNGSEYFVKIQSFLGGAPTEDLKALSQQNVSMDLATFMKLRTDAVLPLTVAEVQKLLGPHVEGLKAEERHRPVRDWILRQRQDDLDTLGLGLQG

Mean No of serum samples >30% inhibition (30% CCP) with SCP (serum samples) [1]	No of serum samples >30% inhibition (30% CCP) without SCP (serum samples) [1]	Kd [2] [nM]	n-fold to wt [2] [fold]	Binder
0	0	2.5	1.4	PRO3348 (scFv 54-21-H03-sc01_(T101K, T146D)) (scFv, PRO1922 variant; VH substitutions, AHo numbering; also called PRO1922 T101K-T146D) scFv: DIQMTQSPSSLSASVGDRVTITCQASESIYSSLAWYQQKPGKAPKLLIYLASTLASGVPSRFSGSGSGTDFTLTISSLQPEDFATYYCQSTDYTTSTHRNSFGTGTKVTVLGGGGGSGGGGSGGGGSGGGGSEVQLVESGGGLVQPGGSLRLSCAASGFSFSTTYYMCWVRQAPGKGLEWIGCTNTASSVRTYYATWAKGRFTISRDNSKNTVYLQMNSLRAEDKAVYYCARDMGFADYALNLWGQGTLVDVSS
0	0	1.9	1.1	PRO3349 (scFv 54-21-H03-sc01_(T101R, T146E)) (scFv, PRO1922 variant; VH substitutions, AHo numbering; also called PRO1922 T101R-T146E) scFv: DIQMTQSPSSLSASVGDRVTITCQASESIYSSLAWYQQKPGKAPKLLIYLASTLASGVPSRFSGSGSGTDFTLTISSLQPEDFATYYCQSTDYTTSTHRNSFGTGTKVTVLGGGGGSGGGGSGGGGSGGGGSEVQLVESGGGLVQPGGSLRLSCAASGFSFSTTYYMCWVRQAPGKGLEWIGCTNTASSVRTYYATWAKGRFTISRDNSKNTVYLQMNSLRAEDRAVYYCARDMGFADYALNLWGQGTLVEVSS
